Tests used:
Assay in all cases: cell_activity
[1] = system: Cre recombinase S2A (Bacteriophage P1); details: pBS210 excision in Nicotiana plumbaginifolia protoplasts, 72 h; pBS210 alone 0
[2] = system: nlsCre recombinase S2A (Bacteriophage P1); details: pBS210 excision in Nicotiana plumbaginifolia protoplasts, 72 h; pBS210 alone 0
[3] = system: nlsCre recombinase from intron-containing gene (inlscre) S2A (Bacteriophage P1); details: pBS210 excision in Nicotiana plumbaginifolia protoplasts, 72 h; also in planta excision in tobacco from pBS229

“loxP sites in direct repeat (pBS210, pBS229)” gave an activity (GUS units/25 ug protein) [1] of 133, an activity (GUS units/25 ug protein) [2] of 141 and an activity (GUS units/25 ug protein) [3] of 51.
